This note sets out measurements from publication PMC10532153 (2023).

In assay [1] the target is T1, Sos-S2 peptide (Drosophila melanogaster, UniProt P26675).
T1 chain: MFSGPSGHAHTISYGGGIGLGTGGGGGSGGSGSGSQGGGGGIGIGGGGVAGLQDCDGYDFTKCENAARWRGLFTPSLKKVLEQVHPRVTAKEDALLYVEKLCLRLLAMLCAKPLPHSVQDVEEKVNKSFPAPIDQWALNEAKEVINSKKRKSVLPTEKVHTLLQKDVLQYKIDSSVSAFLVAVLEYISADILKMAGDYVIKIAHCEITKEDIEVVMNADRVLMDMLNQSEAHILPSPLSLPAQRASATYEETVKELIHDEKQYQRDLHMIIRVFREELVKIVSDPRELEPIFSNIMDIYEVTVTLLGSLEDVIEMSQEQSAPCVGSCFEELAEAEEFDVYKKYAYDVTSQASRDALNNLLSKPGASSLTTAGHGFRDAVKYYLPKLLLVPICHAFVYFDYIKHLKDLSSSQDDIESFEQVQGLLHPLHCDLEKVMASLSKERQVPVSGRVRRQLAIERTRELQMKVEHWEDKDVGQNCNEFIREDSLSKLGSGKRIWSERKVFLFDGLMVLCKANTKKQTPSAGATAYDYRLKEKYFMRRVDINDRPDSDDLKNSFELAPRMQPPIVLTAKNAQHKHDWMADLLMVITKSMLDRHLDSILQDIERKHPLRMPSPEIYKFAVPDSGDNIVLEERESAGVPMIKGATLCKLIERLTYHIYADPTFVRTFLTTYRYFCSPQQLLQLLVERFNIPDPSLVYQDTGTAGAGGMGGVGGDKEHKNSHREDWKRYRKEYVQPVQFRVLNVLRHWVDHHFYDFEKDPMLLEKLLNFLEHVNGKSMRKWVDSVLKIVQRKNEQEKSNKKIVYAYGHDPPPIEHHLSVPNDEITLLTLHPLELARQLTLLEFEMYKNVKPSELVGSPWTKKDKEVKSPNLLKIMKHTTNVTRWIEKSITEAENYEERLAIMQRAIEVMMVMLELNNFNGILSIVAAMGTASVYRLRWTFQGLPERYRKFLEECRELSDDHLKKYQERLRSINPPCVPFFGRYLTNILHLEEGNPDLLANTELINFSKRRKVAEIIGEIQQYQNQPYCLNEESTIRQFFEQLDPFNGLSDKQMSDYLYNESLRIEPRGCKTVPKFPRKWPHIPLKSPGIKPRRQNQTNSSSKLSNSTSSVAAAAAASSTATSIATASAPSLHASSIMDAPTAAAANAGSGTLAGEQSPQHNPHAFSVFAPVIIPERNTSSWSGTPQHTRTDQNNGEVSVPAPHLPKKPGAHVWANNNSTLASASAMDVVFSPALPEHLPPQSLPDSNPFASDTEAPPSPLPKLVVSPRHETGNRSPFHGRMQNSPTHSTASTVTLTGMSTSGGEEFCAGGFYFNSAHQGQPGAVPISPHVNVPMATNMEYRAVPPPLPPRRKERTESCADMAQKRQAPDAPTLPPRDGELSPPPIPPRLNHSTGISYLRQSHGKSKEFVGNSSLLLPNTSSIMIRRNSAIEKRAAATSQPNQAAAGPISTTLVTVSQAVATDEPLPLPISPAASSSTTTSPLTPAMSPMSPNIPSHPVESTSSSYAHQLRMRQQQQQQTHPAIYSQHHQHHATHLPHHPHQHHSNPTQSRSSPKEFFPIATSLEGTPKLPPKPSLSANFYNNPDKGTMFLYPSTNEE
Nature of the assay: NMR titration.

Assay [2] addresses T2, Sos-S1 peptide (Drosophila melanogaster, UniProt P26675).
T2 chain: T1 chain
Nature of the assay: NMR titration.

B1: Drk NSH3 (protein)
chain: MEAIAKHDFSATADDELSFRKTQILKILNMEDDSNWYRAELDGKEGLIPSNYIEMKNH
The term Kd denotes a measure of binding affinity in units of concentration. The low end stands for tighter binding, the high end for weaker binding. As to B1, the dissociation constant Kd in assay [1] was approximately 41 µM; in assay [2] it was approximately 13 µM.

B2: Drk CSH3 (protein)
chain: PEEMLVQALYDFVPQESGELDFRRGDVITVTDRSDENWWNGEIGNRKGIFPATYVTPYHS
In assay [2], B2 yielded a dissociation constant (Kd) of approximately 160 µM.
